Laboratory results: patent US12139520B2 (priority 2020, dated 2024)
Numbered stars: 1 amine (or outer) side, 2 acyl side, 3 side chain; on linkers, the order of the positions; unused ones are H or OH. Bridge positions count the residues as written; N and C are the ends. Square brackets hold non-standard residues; d marks the D form. Side chains are listed from the residue outwards. Ends that are not written are not given here. * marks the point of attachment. C20 diacid = O=C(O)CCCCCCCCCCCCCCCCCCC(=O)*; γGlu = O=C(O)[C@H](CCC(=O)[*:2])N[*:1]; Hyp = O=C(O)[C@@H]1C[C@@H](O)CN1; Trx = NC[C@H]1CC[C@H](C(=O)O)CC1; Cit = NC(=O)NCCC[C@H](N)C(=O)O; AEEA = NCCOCCOCC(=O)O

T1: hAMY3R (human, UniProt P30988)
T1 sequence 1: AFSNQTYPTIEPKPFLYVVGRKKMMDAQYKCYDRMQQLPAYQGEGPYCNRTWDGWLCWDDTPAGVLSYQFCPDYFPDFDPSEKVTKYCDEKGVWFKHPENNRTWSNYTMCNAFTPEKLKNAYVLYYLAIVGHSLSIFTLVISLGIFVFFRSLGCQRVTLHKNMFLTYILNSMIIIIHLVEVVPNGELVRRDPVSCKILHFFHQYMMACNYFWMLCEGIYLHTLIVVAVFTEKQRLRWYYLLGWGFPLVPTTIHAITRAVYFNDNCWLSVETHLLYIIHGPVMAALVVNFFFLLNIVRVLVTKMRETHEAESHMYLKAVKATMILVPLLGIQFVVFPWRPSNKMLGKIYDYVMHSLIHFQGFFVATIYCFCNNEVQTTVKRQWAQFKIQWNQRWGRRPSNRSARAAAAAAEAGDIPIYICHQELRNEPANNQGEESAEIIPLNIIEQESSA
T1 sequence 2: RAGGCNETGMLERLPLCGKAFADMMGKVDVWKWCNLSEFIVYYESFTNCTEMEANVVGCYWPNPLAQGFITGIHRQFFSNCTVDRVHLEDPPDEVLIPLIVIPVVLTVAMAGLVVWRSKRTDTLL


What was measured:
[1] = biological target: T1, hAMY3R; assay: cell-based or functional assay
[2] = biological target: hAM1R (human, UniProt Q16602); assay: cell-based or functional assay

Binder | hAMY3R EC50 (cAMP) [1] [nM] | hAM1R EC50 (cAMP) [2] [nM]
GCRFGTCTVQRLAHQLYQFTDKDKDNVAPRSKISPQT[Hyp]-NH2 (disulfide 2-7 (inferred); ends not checked) [SEQ ID NO: 217] | 0.167 | > 5000
{C20 diacid-Trx-γGlu-AEEA-AEEA}-K([AEEA-AEEA-γGlu-Trx-C20 diacid])CNTATCTVQRLAEQIYQFTDKDKDNVAPPTNVGSNG[Hyp] (disulfide 2-7 (inferred); ends not checked) [SEQ ID NO: 221] | 0.184 | > 5000
KCNTATCTVQRLAHQIYQFTAKDKDNVAPPTNVGSNG[Hyp]-NH2 (disulfide 2-7 (inferred); ends not checked) [SEQ ID NO: 24] | 0.008 | > 5000
{C20 diacid-γGlu}-KCNTATCTVQRLAHQITQFTDKDKDNVAPPTNVGSNG[Hyp]-NH2 (disulfide 2-7 (inferred); ends not checked) [SEQ ID NO: 22] | 0.008 | > 5000
GCRTGTCTVQRLAHQIYQFTNKDKDNVAPRSKISPQH[Hyp]-NH2 (disulfide 2-7 (inferred); ends not checked) [SEQ ID NO: 219] | 0.171 | 4250
GCRTGTCTVQRLAHQIHQFTNKDKDNVAPRSKISPQT[Hyp]-NH2 (disulfide 2-7 (inferred); ends not checked) [SEQ ID NO: 227] | 0.187 | 4570
GCRTGTCTVQRLAHQIWQFTDKFKDNVAPRSKISPQT[Hyp]-NH2 (disulfide 2-7 (inferred); ends not checked) [SEQ ID NO: 213] | 0.153 | > 5000
GCRTGTCTVQRLAHQIYQFTDKFKDNVAPRSKISPQA[Hyp]-NH2 (disulfide 2-7 (inferred); ends not checked) [SEQ ID NO: 218] | 0.169 | > 5000
GCRTGTCTVQRLAHQIYQFTDKDKDNVAPRSNVSPQG[Hyp]-NH2 (disulfide 2-7 (inferred); ends not checked) [SEQ ID NO: 224] | 0.186 | 2980
GCRTGTCTVQRLAHQIYQFTDKDKDNVAPRTKVSPQG[Hyp]-NH2 (disulfide 2-7 (inferred); ends not checked) [SEQ ID NO: 216] | 0.164 | 2980
GCRTGTCTVQRLAHQIYQFTDKFKDNVAPRSKISPQTM [SEQ ID NO: 215] | 0.161 | > 5000
GCRTGTCTVQRLAHQIYQFTNKDKDNVAPRSKISPQTW [SEQ ID NO: 226] | 0.186 | > 5000
GCRMGTCTVQRLAHQIYQFTDKDKDNVAPSSKISPQT[Hyp]-NH2 (disulfide 2-7 (inferred); ends not checked) [SEQ ID NO: 222] | 0.184 | > 5000
GCRTGTCTVQRLAHQIYQFTDKDKDNVAPRTNISPQG[Hyp]-NH2 (disulfide 2-7 (inferred); ends not checked) [SEQ ID NO: 214] | 0.157 | 2980
KCNTATCTVQRLAHQIYQFADKDKDNVAPPTNVGSNG[Hyp]-NH2 (disulfide 2-7 (inferred); ends not checked) [SEQ ID NO: 23] | 0.008 | > 5000
{C20 diacid-γGlu}-KCNTLTCTVQRLAHQIYQFTDKDKDNVAPPTNVGSNG[Hyp]-NH2 (disulfide 2-7 (inferred); ends not checked) [SEQ ID NO: 225] | 0.186 | > 5000
{C20 diacid-γGlu}-GCRFGTCTVQRLAHFLYQFTDKDKDNVAPRTKVGSNGY-NH2 (disulfide 2-7 (inferred); ends not checked) [SEQ ID NO: 223] | 0.186 | 47.7
GCRTGTCTVQRLAHQIYQFTNKDKDNVAPRSKISPQW[Hyp]-NH2 (disulfide 2-7 (inferred); ends not checked) [SEQ ID NO: 220] | 0.182 | > 5000

Next, values leading:

hAMY3R EC50 (cAMP) [1] [nM] | hAM1R EC50 (cAMP) [2] [nM] | Binder
0.234 | 2240 | GCRTGTCTVQRLAHQIYQFTDKFKDNVAPRSKISPQM[Hyp]-NH2 (disulfide 2-7 (inferred); ends not checked) [SEQ ID NO: 236]
0.209 | > 5000 | {C20 diacid-γGlu}-KCNTYTCTVQRLAHQIYQFTDKDKDNVAPPTNVGSNG[Hyp]-NH2 (disulfide 2-7 (inferred); ends not checked) [SEQ ID NO: 231]
0.22 | > 5000 | KCNTATCTVQRLAEQIYQFTDKDKDNVAPPTNVGSNG[Hyp]-NH2 (disulfide 2-7 (inferred); not fully specified (N-terminus); ends not checked; also: N-terminal Lys carries two C20DA-OEG-γGlu-OEG arms ((...)2-K)) [SEQ ID NO: 233]
0.207 | 2980 | GCRFGTCTVQRLAHQIYQFTDKDKDNVAPRSNIGPQG[Hyp]-NH2 (disulfide 2-7 (inferred); ends not checked) [SEQ ID NO: 229]
0.205 | > 5000 | GCRTGTCTVQRLAHQIHQFTDKDKDNVAPRSKISPQT[Hyp]-NH2 (disulfide 2-7 (inferred); ends not checked) [SEQ ID NO: 228]
0.018 | 3340 | KCNTATCTVQ[Cit]LAAQIYQFTDKDKDNVAPPTNVGSNG[Hyp]-NH2 (disulfide 2-7 (inferred); ends not checked) [SEQ ID NO: 243]
0.227 | > 5000 | KCNTATCATQRLANFLVQFTDKDKDNVAPRSKISPQGY [SEQ ID NO: 234]
0.235 | > 5000 | GCRTGTCTVQRLAHQIYQFTNKDKDNVAPRSKISPQF[Hyp]-NH2 (disulfide 2-7 (inferred); ends not checked) [SEQ ID NO: 238]
0.248 | > 5000 | GCRTGTCTVQRLAHQIYQFTNKDKDNVAPRSKISPQTR [SEQ ID NO: 242]
0.242 | 2290 | GCRTGTCTVQRLAHQIYQFTDKFKDNVAPRSKISPQTA [SEQ ID NO: 241]
0.208 | > 5000 | GCRTGTCTVQRLAHQIYQFTDKFKDNVAPRSKISPQTY [SEQ ID NO: 230]
0.233 | 1420 | GCRTGTCTVQRLAHQIYQFTDKFKDNVAPRSKISPQTP [SEQ ID NO: 235]
0.235 | 4250 | GCRTGTCTVQRLAHQIYQFTNKDKDNVAPRSKISPQTM [SEQ ID NO: 237]
0.236 | > 5000 | GCRTGTCTVQRLAHQIYQFTDKFKDNVAPRSKISPQTF [SEQ ID NO: 239]
0.24 | > 5000 | GCRFGTCTVQRLAHQIYQFTDKDKDNVAPSSKISPQT[Hyp]-NH2 (disulfide 2-7 (inferred); ends not checked) [SEQ ID NO: 240]
0.213 | > 5000 | GCRTGTCTVQRLAHQIYQFTNKDKDNVAPRSKISPQQ[Hyp]-NH2 (disulfide 2-7 (inferred); ends not checked) [SEQ ID NO: 232]
